doi:10.1101/2025.02.04.635266

Biological target: IgG1-DNP-E430G (human)
Experiment: single molecule force spectroscopy

Question: With “DNP-unspecific IgG1-E430G (tip-linked) (antibody)” as the substance, how does the koff read?
Answer: 1.8 s⁻¹
